Assay results taken from PMC10954369.

Biological target: T1, GST-JunB (mouse, UniProt P09450 1-344)
T1 sequence: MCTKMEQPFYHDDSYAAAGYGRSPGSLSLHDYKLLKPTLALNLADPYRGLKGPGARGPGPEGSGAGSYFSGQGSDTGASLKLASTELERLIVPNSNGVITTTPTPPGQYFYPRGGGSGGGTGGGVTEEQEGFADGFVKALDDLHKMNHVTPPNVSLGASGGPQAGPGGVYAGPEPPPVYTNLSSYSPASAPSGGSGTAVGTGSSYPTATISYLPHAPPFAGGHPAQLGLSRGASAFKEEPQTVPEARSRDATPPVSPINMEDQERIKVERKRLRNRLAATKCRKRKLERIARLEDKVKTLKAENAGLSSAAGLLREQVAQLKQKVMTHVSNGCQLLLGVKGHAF
Assay: EMSA

B1: Erra promoter TRE probe WT (-1305/-1315) (dsDNA)
DNA 1: AGTGAGTGACTCAGAGGACTT
DNA 2: AAGTCCTCTGAGTCACTCACT
B1: binds.
